Experimental data as given in the supplement of paper PMC10065799, “High-throughput profiling of sequence recognition by tyrosine kinases and SH2 domains using bacterial peptide display” (eLife, 2023).

What was measured:
FGFR3 = FGFR3 (UniProt P22607); test: phosphorylation enrichment, bacterial display (enrichment ratio); higher = better substrate or ligand; peptides without Tyr show the background
EPHB2 = EPHB2 (UniProt P29323); test: as above
Hck = Hck (UniProt P08631); test: as above
EPHB1 = EPHB1 (UniProt P54762); test: as above
Fer (mouse) = test: as above
c-Abl (mouse) = test: as above
FGFR1 = FGFR1 (UniProt P11362); test: as above
Sequence of FGFR1 (P11362 whole entry, looked up): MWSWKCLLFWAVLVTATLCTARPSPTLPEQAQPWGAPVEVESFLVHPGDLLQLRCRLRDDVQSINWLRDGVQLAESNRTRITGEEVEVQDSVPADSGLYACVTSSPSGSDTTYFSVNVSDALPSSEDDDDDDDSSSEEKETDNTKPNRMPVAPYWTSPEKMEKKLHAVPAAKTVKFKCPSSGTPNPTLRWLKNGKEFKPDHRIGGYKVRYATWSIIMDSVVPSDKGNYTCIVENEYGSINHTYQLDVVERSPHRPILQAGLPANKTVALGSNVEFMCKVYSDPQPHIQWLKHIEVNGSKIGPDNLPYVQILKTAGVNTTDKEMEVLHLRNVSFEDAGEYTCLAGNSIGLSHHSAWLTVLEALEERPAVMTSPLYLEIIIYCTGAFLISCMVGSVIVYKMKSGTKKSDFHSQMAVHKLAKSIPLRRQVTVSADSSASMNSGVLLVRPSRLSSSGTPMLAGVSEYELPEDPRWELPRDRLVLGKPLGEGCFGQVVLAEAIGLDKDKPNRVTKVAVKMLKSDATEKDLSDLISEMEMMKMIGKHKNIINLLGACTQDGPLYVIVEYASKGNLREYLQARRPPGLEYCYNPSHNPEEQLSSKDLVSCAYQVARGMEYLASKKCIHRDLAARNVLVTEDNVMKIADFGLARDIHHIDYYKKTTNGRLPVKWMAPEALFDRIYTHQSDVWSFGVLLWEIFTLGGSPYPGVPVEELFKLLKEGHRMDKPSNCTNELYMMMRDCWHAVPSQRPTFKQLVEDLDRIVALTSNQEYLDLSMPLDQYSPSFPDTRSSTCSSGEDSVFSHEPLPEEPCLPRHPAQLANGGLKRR

AncSZ = test: as above
Fyn = Fyn (UniProt P06241); test: as above
Sequence of Fyn (P06241 whole entry, looked up): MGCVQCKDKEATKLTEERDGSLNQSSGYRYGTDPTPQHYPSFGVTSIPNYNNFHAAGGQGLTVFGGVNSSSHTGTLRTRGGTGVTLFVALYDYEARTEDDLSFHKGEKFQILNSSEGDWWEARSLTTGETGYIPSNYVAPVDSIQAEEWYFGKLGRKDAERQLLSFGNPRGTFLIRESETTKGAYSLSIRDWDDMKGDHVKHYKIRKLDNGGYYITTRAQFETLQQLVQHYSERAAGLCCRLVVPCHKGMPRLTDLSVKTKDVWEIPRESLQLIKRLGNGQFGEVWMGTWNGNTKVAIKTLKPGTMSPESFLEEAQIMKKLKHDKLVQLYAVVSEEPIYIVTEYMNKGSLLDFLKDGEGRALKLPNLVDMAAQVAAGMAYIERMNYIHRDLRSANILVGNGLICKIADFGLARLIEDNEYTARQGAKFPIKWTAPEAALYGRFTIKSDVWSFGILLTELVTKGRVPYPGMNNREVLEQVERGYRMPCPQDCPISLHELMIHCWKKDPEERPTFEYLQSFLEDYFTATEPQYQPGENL

MERTK = MERTK (UniProt Q12866); test: as above
Sequence of MERTK (Q12866 whole entry, looked up): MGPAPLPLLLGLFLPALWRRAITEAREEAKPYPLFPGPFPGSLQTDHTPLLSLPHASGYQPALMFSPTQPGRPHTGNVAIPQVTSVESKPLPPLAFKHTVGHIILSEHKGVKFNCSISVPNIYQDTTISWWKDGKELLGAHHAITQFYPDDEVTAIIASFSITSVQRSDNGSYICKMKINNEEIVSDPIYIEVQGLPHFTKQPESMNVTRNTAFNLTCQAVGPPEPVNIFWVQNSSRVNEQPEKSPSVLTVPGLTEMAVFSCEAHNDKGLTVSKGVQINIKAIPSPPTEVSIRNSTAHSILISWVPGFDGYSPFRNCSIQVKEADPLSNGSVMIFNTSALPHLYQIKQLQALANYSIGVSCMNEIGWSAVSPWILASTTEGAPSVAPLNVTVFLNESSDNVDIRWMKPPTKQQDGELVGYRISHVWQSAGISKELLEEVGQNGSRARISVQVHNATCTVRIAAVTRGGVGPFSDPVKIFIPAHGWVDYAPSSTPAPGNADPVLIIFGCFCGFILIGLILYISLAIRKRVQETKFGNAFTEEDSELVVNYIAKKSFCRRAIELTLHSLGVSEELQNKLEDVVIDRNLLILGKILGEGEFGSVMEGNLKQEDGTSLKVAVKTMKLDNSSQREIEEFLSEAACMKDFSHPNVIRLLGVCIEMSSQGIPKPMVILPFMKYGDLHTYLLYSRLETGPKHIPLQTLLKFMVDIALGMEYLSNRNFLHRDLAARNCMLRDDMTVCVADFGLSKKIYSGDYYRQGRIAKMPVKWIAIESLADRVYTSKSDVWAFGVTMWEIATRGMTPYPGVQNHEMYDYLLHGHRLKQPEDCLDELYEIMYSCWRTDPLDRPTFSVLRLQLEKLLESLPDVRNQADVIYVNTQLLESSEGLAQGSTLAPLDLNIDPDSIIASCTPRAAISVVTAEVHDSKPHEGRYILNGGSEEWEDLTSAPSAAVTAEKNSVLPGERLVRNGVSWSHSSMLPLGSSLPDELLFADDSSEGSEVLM

Jak2 = Jak2 (UniProt O60674); test: as above
c-Src = test: as above
Fes = Fes (UniProt P07332); test: as above
Sequence of Fes (P07332 whole entry, looked up): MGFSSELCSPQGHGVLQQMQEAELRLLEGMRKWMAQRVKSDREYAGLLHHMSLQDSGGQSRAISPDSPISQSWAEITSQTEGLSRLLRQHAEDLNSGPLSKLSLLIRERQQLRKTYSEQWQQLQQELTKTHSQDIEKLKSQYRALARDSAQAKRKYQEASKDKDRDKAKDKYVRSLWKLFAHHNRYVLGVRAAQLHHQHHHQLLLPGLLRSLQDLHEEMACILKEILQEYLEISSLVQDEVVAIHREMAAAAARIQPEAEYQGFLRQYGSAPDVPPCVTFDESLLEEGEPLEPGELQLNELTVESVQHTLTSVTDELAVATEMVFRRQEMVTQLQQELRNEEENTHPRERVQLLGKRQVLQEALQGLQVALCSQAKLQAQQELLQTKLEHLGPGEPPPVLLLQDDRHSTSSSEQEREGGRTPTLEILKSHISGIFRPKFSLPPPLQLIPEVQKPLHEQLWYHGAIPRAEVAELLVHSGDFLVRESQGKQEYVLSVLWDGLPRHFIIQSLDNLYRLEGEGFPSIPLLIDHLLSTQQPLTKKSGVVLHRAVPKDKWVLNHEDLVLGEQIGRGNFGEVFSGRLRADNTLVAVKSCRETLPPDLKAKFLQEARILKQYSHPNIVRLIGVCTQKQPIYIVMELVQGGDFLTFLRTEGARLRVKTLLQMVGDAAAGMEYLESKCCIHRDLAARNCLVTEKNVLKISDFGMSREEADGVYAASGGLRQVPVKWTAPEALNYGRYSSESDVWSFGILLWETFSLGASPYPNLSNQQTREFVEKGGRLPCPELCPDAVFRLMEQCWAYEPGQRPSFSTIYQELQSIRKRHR

Grb2 SH2 = Grb2 SH2 (UniProt P62993); test: SH2 binding enrichment of the phosphorylated peptide, bacterial display (enrichment ratio); higher = better substrate or ligand; peptides without Tyr show the background
SHP2-C SH2 = test: as above
c-Src SH2 = test: as above
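For SH2 binding enrichment of the phosphorylated peptide, bacterial display in this document: peptide library displayed on the E. coli surface as eCPX fusions, selected cells deep-sequenced, score is each peptide's frequency after selection divided by its frequency in the input.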
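For phosphorylation enrichment, bacterial display in this document: 11-residue human phosphosite peptides and single-mutation variants displayed on the E. coli surface, counted by deep sequencing, each peptide's frequency after selection divided by its frequency in the unselected input library; frequency after pTyr selection over input frequency; kinase dosed for 20-30% of maximal phosphorylation in three min.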

Sequence of FGFR3 (P22607 whole entry, looked up): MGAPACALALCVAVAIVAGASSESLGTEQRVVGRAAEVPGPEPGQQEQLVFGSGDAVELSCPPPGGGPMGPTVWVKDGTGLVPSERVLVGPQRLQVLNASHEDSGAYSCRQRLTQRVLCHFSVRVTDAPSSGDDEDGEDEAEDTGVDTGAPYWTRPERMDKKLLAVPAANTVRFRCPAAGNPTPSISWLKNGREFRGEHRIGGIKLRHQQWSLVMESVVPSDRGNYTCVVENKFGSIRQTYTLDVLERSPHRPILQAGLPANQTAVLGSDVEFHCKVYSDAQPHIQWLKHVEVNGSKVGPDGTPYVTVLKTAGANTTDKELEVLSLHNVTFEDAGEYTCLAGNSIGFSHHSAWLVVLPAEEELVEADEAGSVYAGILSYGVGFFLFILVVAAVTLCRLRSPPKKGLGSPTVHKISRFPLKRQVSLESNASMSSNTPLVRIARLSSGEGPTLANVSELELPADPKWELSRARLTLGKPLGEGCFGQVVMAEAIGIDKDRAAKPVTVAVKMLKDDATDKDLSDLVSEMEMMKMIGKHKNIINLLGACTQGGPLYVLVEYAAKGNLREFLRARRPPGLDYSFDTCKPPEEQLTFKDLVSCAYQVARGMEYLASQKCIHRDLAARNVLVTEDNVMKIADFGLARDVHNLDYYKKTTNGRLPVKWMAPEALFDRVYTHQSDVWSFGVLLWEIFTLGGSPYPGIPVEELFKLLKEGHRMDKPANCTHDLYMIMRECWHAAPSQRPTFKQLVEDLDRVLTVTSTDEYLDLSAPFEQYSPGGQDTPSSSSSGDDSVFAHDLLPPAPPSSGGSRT
Sequence of EPHB2 (P29323 whole entry, looked up): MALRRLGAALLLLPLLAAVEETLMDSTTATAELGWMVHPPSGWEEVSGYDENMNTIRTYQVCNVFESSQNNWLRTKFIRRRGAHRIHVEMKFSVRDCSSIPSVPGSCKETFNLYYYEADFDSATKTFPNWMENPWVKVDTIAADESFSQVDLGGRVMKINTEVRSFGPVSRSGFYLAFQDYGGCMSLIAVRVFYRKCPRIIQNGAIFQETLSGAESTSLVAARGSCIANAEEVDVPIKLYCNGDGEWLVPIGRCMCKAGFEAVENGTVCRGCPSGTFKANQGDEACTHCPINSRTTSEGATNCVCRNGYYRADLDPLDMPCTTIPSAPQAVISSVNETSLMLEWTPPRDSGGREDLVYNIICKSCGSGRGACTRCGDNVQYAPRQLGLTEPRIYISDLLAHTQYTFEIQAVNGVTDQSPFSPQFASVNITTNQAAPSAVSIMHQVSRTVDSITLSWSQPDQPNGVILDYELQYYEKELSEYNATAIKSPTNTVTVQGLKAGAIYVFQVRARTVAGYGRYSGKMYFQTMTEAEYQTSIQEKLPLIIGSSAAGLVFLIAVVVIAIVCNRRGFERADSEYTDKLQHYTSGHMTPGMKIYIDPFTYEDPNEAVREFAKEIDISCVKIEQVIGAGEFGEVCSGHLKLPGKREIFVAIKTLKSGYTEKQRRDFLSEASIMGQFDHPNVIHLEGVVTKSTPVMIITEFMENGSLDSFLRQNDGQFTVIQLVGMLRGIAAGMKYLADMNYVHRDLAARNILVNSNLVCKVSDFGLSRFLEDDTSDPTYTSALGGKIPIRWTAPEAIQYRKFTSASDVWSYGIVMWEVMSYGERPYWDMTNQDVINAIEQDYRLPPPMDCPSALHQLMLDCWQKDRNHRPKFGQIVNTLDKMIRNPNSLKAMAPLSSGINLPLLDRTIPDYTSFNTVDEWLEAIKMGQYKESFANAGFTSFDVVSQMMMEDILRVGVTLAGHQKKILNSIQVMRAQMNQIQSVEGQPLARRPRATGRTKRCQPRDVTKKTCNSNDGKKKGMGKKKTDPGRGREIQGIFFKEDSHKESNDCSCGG

| Sequence | phosphorylation enrichment (FGFR3) | phosphorylation enrichment (EPHB2) | phosphorylation enrichment (Hck) | phosphorylation enrichment (EPHB1) | phosphorylation enrichment (Fer (mouse)) | phosphorylation enrichment (c-Abl (mouse)) | phosphorylation enrichment (FGFR1) | phosphorylation enrichment (AncSZ) | phosphorylation enrichment (Fyn) | phosphorylation enrichment (MERTK) | phosphorylation enrichment (Jak2) | phosphorylation enrichment (c-Src) | phosphorylation enrichment (Fes) | SH2 binding enrichment (Grb2 SH2) | SH2 binding enrichment (SHP2-C SH2) | SH2 binding enrichment (c-Src SH2) |
| --- | --- | --- | --- | --- | --- | --- | --- | --- | --- | --- | --- | --- | --- | --- | --- | --- |
| IEPGIYIPEDD [XPNPEP3_Y455] | 0.902 | 0.523 | 0.592 | 0.598 | 0.576 | 1.05 | 0.521 | 1.23 | 0.59 | 0.558 | 1.24 | 0.702 | 1.38 | 0.802 | 0.819 | 0.454 |
| IEPVIYVVQRR [ANOS1_Y217] | 0.475 | 0.486 | 0.315 | 0.209 | 0.271 | 0.58 | 0.368 | 1.37 | 0.304 | 0.531 | 1.1 | 0.356 | 1.23 | 0.512 | 0.236 | 0.255 |
| IFHENYNAGTF [CFI_Y421_YF] | 0.465 | 0.388 | 0.417 | 0.36 | 0.435 | 0.578 | 0.473 | 0.612 | 0.461 | 0.415 | 0.615 | 0.456 | 0.647 | 0.869 | 0.684 | 0.479 |
| IFRASYFRRGD [LTK_Y676_YF] | 0.469 | 0.438 | 0.613 | 0.431 | 0.439 | 0.63 | 0.465 | 0.923 | 0.512 | 0.571 | 0.668 | 0.582 | 0.879 | 0.382 | 0.509 | 0.315 |
| IGDENYGEGSS [ACO2_Y665] | 0.738 | 0.606 | 0.59 | 0.511 | 0.518 | 0.882 | 0.533 | 1.25 | 0.529 | 0.586 | 1.39 | 0.522 | 1.18 | 0.814 | 0.86 | 0.449 |
| IGEGTSGVVFK [CDK2_Y15_Y15S_YF] | 0.561 | 0.457 | 0.449 | 0.418 | 0.382 | 0.501 | 0.339 | 0.66 | 0.365 | 0.409 | 0.582 | 0.405 | 0.878 | 0.844 | 0.786 | 0.515 |
| IGEGTYRQVFK [CDK13_Y716_G717R_YF] | 0.654 | 0.582 | 0.634 | 0.603 | 0.474 | 0.558 | 0.488 | 0.693 | 0.485 | 0.348 | 0.715 | 0.386 | 0.973 | 0.732 | 0.505 | 0.41 |
| IHFPPYTDWNQ [ALDH3B2_Y365_YF] | 0.685 | 0.524 | 0.519 | 0.695 | 1.04 | 0.687 | 0.659 | 1.01 | 0.526 | 0.431 | 0.894 | 0.52 | 1.03 | 0.979 | 0.736 | 0.821 |
| IHHIDYFKETT [FGFR1_Y653_K656E_YF] | 0.567 | 0.415 | 0.446 | 0.456 | 0.451 | 0.445 | 0.443 | 0.605 | 0.555 | 0.427 | 0.692 | 0.489 | 0.778 | 0.832 | 0.767 | 0.447 |
| IKETHYMVDKC | 0.543 | 0.531 | 0.448 | 0.447 | 0.507 | 0.652 | 0.489 | 0.8 | 0.46 | 0.437 | 0.804 | 0.403 | 0.944 | 0.684 | 0.68 | 0.525 |
| IKSSIYDNRKE [ARAP2_Y380] | 0.504 | 0.321 | 0.753 | 0.307 | 0.355 | 0.518 | 0.538 | 1.13 | 0.366 | 0.416 | 0.586 | 0.58 | 0.725 | 0.934 | 0.741 | 0.445 |
| ILILKYPIEHG [ACTA1_Y71_T68I] | 0.807 | 0.479 | 0.488 | 0.612 | 0.694 | 0.818 | 0.525 | 1.07 | 0.39 | 0.424 | 1.11 | 0.491 | 1.29 | 2.07 | 1.72 | 1.58 |
| ILQSMYGCDVG [HLA-B_Y123_T118I] | 0.624 | 0.51 | 0.517 | 0.659 | 0.48 | 0.546 | 0.403 | 0.816 | 0.489 | 0.438 | 0.893 | 0.569 | 0.935 | 0.818 | 0.566 | 0.402 |
| IMAFFYMCDRA [CASD1_Y382_YF] | 1.12 | 0.648 | 0.545 | 0.938 | 0.677 | 1.09 | 0.652 | 1.48 | 0.57 | 0.544 | 1.64 | 0.57 | 1.63 | 0.819 | 0.825 | 0.641 |
| IMAFFYMCDSA [CASD1_Y382_R386S_YF] | 1.12 | 0.782 | 0.658 | 0.896 | 0.805 | 1.11 | 0.791 | 1.44 | 0.548 | 0.401 | 1.41 | 0.596 | 1.78 | 1.1 | 0.725 | 0.551 |
| INQGPYENRSV [ATP6V1B1_Y462] | 0.441 | 0.568 | 0.423 | 0.381 | 0.4 | 0.475 | 0.421 | 0.558 | 0.38 | 0.38 | 0.47 | 0.435 | 0.622 | 1.2 | 0.643 | 0.532 |
| IPGGIYDADLN [CST4_Y35] | 0.836 | 0.649 | 1.65 | 0.582 | 0.611 | 1.14 | 0.746 | 1.24 | 1.76 | 0.787 | 1.4 | 1.62 | 1.32 | 0.991 | 0.876 | 0.823 |
